Data: the supplement of paper PMC10567573

B1: ESRRA (parent)
chain: SLPLQDELAFAEDLVLDEEGARAA

Variants of: B1
Assay: protein stability index of a GFP-peptide fusion (GPS, HEK-293T) (PSI 1-6); higher = more stable
Conditions: c terminus: a fixed tail appended
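Note: lentivirally expressed fusions sorted by FACS into six bins by GFP to DsRed ratio, PSI derived from sequencing read proportions per bin multiplied by bin number.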

Variant | protein stability index
SLPLQDELAFAEDLVLQEEGARAA | 3.31
SLPLQDELAFAEDLVLPEEGARAA | 4.71
SLPLQDELAFAEDLVLLEEGARAA | 2.71
SLPLQDELAFAEDLVLGEEGARAA | 2.15
SLPLQDELAFAEDLVLIEEGARAA | 2.45
SLPLQDELAFAEDLVLTEEGARAA | 3.57
SLPLQDELAFAEDLVLKEEGARAA | 2.46
SLPLQDELAFAEDLVLMEEGARAA | 2.03
SLPLQDELAFAEDLVLAEEGARAA | 2.89
SLPLQDELAFAEDLVLHEEGARAA | 3.47
SLPLQDELAFAEDLVLWEEGARAA | 2.62
SLPLQDELAFAEDLVLSEEGARAA | 2.69
SLPLQDELAFAEDLVLFEEGARAA | 2.93
SLPLQDELAFAEDLVLVEEGARAA | 3.19
SLPLQDELAFAEDLVLYEEGARAA | 2.5
SLPLQDELAFAEDLVLREEGARAA | 3.13
SLPLQDELAFAEDLVLNEEGARAA | 2.86
SLPLQDELAFAEDLVLCEEGARAA | 2.78
SLPLQDELAFAEDLVLEEEGARAA | 3.7
SLPLQDELAFAEDLVLDESGARAA | 2.79
SLPLQDELAFAEDLVLDETGARAA | 2.71
SLPLQDELAFAEDLVLDEKGARAA | 2.89
SLPLQDELAFAEDLVLDEIGARAA | 1.74
SLPLQDELAFAEDLVLDEMGARAA | 1.85

Variant | protein stability index
SLPLQDELAFAEDLVLDENGARAA | 2.63
SLPLQDELAFAEDLVLDEYGARAA | 2.77
SLPLQDELAFAEDLVLDEAGARAA | 1.86
SLPLQDELAFAEDLVLDECGARAA | 2.79
SLPLQDELAFAEDLVLDEFGARAA | 2.25
SLPLQDELAFAEDLVLDEWGARAA | 2.52
SLPLQDELAFAEDLVLDERGARAA | 2.02
SLPLQDELAFAEDLVLDEPGARAA | 4.02
SLPLQDELAFAEDLVLDELGARAA | 2.15
SLPLQDELAFAEDLVLDEQGARAA | 2.56
SLPLQDELAFAEDLVLDEGGARAA | 1.75
SLPLQDELAFAEDLVLDEVGARAA | 2.83
SLPLQDELAFAEDLVLDEDGARAA | 2.79
SLPLQDELAFAEDLVLDEHGARAA | 2.33
SLPLQDELAFAEDLWLDEEGARAA | 4.85
SLPLQDELAFAEDLTLDEEGARAA | 5.28
SLPLQDELAFAEDLRLDEEGARAA | 5.42
SLPLQDELAFAEDLSLDEEGARAA | 5.76
SLPLQDELAFAEDLQLDEEGARAA | 5.49
SLPLQDELAFAEDLYLDEEGARAA | 5.25
SLPLQDELAFAEDLVLDEELARAA | 3.04
SLPLQDELAFAEDLVLDEEEARAA | 5.11
SLPLQDELAFAEDLVLDEEMARAA | 2.51
SLPLQDELAFAEDLVLDEEPARAA | 3.7

Variant | protein stability index
SLPLQDELAFAEDLVLDEEAARAA | 4.48
SLPLQDELAFAEDLVLDEECARAA | 2.6
SLPLQDELAFAEDLVLDEEDARAA | 3.46
SLPLQDELAFAEDLVLDEEHARAA | 2.9
SLPLQDELAFAEDLVLDEEIARAA | 3.08
SLPLQDELAFAEDLVLDEEKARAA | 3.4
SLPLQDELAFAEDLVLDEENARAA | 3.52
SLPLQDELAFAEDLVLDEEFARAA | 3.47
SLPLQDELAFAEDLVLDSEGARAA | 2.85
SLPLQDELAFAEDLVLDKEGARAA | 4.48
SLPLQDELAFAEDLVLDYEGARAA | 2.99
SLPLQDELAFAEDLVLDMEGARAA | 2.42
SLPLQDELAFAEDLVLDTEGARAA | 2.79
SLPLQDELAFAEDLVLDGEGARAA | 2.93
SLPLQDELAFAEDLVLDAEGARAA | 2.7
SLPLQDELAFAEDLVLDLEGARAA | 3.11
SLPLQDELAFAEDLVLDQEGARAA | 2.8
SLPLQDELAFAEDLVLDDEGARAA | 4.8
SLPLQDELAFAEDLVLDIEGARAA | 3.81
SLPLQDELAFAEDLVLDREGARAA | 4.03
SLPLQDELAFAEDLVLDNEGARAA | 3.68
SLPLQDELAFAEDLVLDVEGARAA | 3.6
SLPLQDELAFAEDLVLDPEGARAA | 2.56
SLPLQDELAFAEDLVLDCEGARAA | 2.31

Variant | protein stability index
SLPLQDELAFAEDLVLDWEGARAA | 2.49
SLPLQDELAFAEDLVLDHEGARAA | 2.56
SLPLQDELAFAEDLVLDFEGARAA | 3.24
SLPLQDELAFAEDLVMDEEGARAA | 3
SLPLQDELAFAEDLVADEEGARAA | 3.83
SLPLQDELAFAEDLVQDEEGARAA | 3.54
SLPLQDELAFAEDLVSDEEGARAA | 4.91
SLPLQDELAFAEDLVFDEEGARAA | 3.7
SLPLQDELAFAEDLVIDEEGARAA | 3.88
SLPLQDELAFAEDLVTDEEGARAA | 4.72
SLPLQDELAFAEDLVVDEEGARAA | 4.15
SLPLQDELAFAEDLVCDEEGARAA | 3.63
SLPLQDELAFAEDLVWDEEGARAA | 3.23
SLPLQDELAFAEDLVRDEEGARAA | 3.55
SLPLQDELAFAEDLVNDEEGARAA | 4.59
SLPLQDELAFAEDLVYDEEGARAA | 2.44
SLPLQDELAFAEDLVEDEEGARAA | 5.2
SLPLQDELAFAEDLVGDEEGARAA | 4.85
SLPLQDELAFAEDLVKDEEGARAA | 3.24
SLPLQDELAFAEDLVHDEEGARAA | 3.6
SLPLQDELAFAEDLVDDEEGARAA | 5.66
SLPLQDELAFAEDLVPDEEGARAA | 5.75
